Experimental data as given in patent publication US20230192789A1, “STRUCTURALLY-STABILIZED AND HDMX-SELECTIVE P53 PEPTIDES AND USES THEREOF” (Dana-Farber Cancer Institute, Inc., priority 2020, published 2023).
Entries after “also recorded” stand apart in the source; their conditions may differ. Bridges are numbered along the chain shown (N, C = ends). Where no end group is shown, it is not given here. [ ]: non-standard residue; d: D form. The star is where a group is joined. Biotin = O=C1N[C@H]2[C@H](CS[C@H]2CCCCC(=O)*)N1; R8 = C=CCCCCCC[C@@](C)(N)C(=O)O; S5 = C=CCCC[C@](C)(N)C(=O)O

T1: recombinant HDMX (amino acids 1-490 of SEQ ID NO:104) (Homo sapiens, UniProt O15151)
T1 construct: thioredoxin (N, cleaved yes); S tag (N, cleaved yes); hexahistidine (N, cleaved yes); made in house; host or cells: E. coli (inferred: pET32-LIC vector, handled as described for HDM2 in BL21(DE3))
T1 sequence (O15151 1-490): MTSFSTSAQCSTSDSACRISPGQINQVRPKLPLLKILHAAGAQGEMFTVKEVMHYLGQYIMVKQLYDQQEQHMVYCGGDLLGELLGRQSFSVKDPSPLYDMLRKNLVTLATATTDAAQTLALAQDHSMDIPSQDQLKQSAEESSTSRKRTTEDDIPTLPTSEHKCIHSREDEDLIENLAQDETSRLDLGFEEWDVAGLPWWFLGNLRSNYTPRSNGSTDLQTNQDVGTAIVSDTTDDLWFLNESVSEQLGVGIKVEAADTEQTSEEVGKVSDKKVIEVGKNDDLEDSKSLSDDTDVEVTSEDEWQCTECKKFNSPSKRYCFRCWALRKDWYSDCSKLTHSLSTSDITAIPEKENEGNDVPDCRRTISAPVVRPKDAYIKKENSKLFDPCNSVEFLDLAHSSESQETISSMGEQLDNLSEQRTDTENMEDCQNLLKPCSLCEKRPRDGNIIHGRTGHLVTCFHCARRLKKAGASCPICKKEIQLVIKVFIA


How the values were obtained:
[1] = biological target: T1, recombinant HDMX (amino acids 1-490 of SEQ ID NO:104); assay: Competitive streptavidin pull-down of biotinylated peptides with 1:1 recombinant HDM2/HDMX mixture, HDMX western; format: binding; details: biotinylated stapled peptide, 1:1 mixture of recombinant HDM2 and HDMX
[2] = biological target: T2, recombinant HDM2 (amino acids 17-125 of SEQ ID NO:103) (Homo sapiens, UniProt Q00987); assay: Competitive streptavidin pull-down of biotinylated peptides with 1:1 recombinant HDM2/HDMX mixture, HDM2 western; format: binding; details: biotinylated stapled peptide, 1:1 mixture of recombinant HDM2 and HDMX
T2 construct: hexahistidine (N); thrombin cleavage site (N); made in house; host or cells: BL21(DE3) E. coli
Procedure: For these studies, biotinylated peptides were incubated with a 1:1 mixture of recombinant HDM2 (amino acids 17-125 of SEQ ID NO: 103) and HDMX (amino acids 1-490 of SEQ ID NO: 104), followed by streptavidin pull-down and HDM2 and HDMX Western analyses. […] .

[3] = biological target: T3, recombinant HDM2 (amino acids 17-125 of SEQ ID NO:103) (human, UniProt Q00987 17-125); assay: streptavidin pull-down of biotinylated peptide with recombinant HDM2 and HDMX (1:1 mixture per paragraph 301), western blot
T3 construct: also called MDM2; not shown: thrombin cleavage site (pET28a vector)

Molecule | binding result [3] | HDMX versus HDM2 binding selectivity [1] | HDM2 interaction [2] | further results
ATSP-7041 B26I (Biotin-LTF[R8]EYWAQI[S5]SAA-NH2; staple 4-11; SMILES CC[C@H](C)[C@@H]1NC(=O)[C@H](CCC(N)=O)NC(=O)[C@H](C)NC(=O)[C@H](Cc2c[nH]c3ccccc23)NC(=O)[C@H](Cc2ccc(O)cc2)NC(=O)[C@H](CCC(=O)O)NC(=O)[C@](C)(NC(=O)[C@H](Cc2ccccc2)NC(=O)[C@@H](NC(=O)[C@H](CC(C)C)NC(=O)CCCC[C@@H]2SC[C@@H]3NC(=O)N[C@@H]32)[C@@H](C)O)CCCCCCC=CCCC[C@@](C)(C(=O)N[C@@H](CO)C(=O)N[C@@H](C)C(=O)N[C@@H](C)C(N)=O)NC1=O) |  | dual HDM2/HDXM-targeting activity | restored HDM2 binding and bind | HDMX versus HDM2 binding selectivity ([1]; listed as SEQ ID NO:63): dual-selectivity to HDMX and HDM2
ATSP-7041 B26A (Biotin-LTF[R8]EYWAQA[S5]SAA-NH2; staple 4-11; SMILES CC(C)C[C@H](NC(=O)CCCC[C@@H]1SC[C@@H]2NC(=O)N[C@@H]21)C(=O)N[C@H](C(=O)N[C@@H](Cc1ccccc1)C(=O)N[C@]1(C)CCCCCCC=CCCC[C@@](C)(C(=O)N[C@@H](CO)C(=O)N[C@@H](C)C(=O)N[C@@H](C)C(N)=O)NC(=O)[C@H](C)NC(=O)[C@H](CCC(N)=O)NC(=O)[C@H](C)NC(=O)[C@H](Cc2c[nH]c3ccccc23)NC(=O)[C@H](Cc2ccc(O)cc2)NC(=O)[C@H](CCC(=O)O)NC1=O)[C@@H](C)O) |  | HDMX selectivity over HDM2; also recorded: most HDMX-specific | essentially abrogate HDM2 interaction | HDMX interaction [1]: engage HDMX with greatest affinity
SAH-p53-4 K24E/E28A: Formula (I) stapled peptide: [Xaa]w LSQETF, [Xaa]x DLWELL, [Xaa]y AN (LSQETF[R8]DLWELL[S5]AN-NH2; staple 7-14; not fully specified (N-terminus)) |  | restored dual HDM2/HDMX interaction | especially robust HDM2 interaction | HDMX interaction [1]: HDMX binding; HDMX versus HDM2 binding selectivity ([1]; listed as SEQ ID NO:47): selectivity to HDM2
ATSP-7041 B26R (Biotin-LTF[R8]EYWAQR[S5]SAA-NH2; staple 4-11; SMILES CC(C)C[C@H](NC(=O)CCCC[C@@H]1SC[C@@H]2NC(=O)N[C@@H]21)C(=O)N[C@H](C(=O)N[C@@H](Cc1ccccc1)C(=O)N[C@]1(C)CCCCCCC=CCCC[C@@](C)(C(=O)N[C@@H](CO)C(=O)N[C@@H](C)C(=O)N[C@@H](C)C(N)=O)NC(=O)[C@H](CCCNC(=N)N)NC(=O)[C@H](CCC(N)=O)NC(=O)[C@H](C)NC(=O)[C@H](Cc2c[nH]c3ccccc23)NC(=O)[C@H](Cc2ccc(O)cc2)NC(=O)[C@H](CCC(=O)O)NC1=O)[C@@H](C)O) |  | HDMX selectivity over HDM2; also recorded: most HDMX-specific | essentially abrogate HDM2 interaction | HDMX interaction [1]: engage HDMX with greatest affinity
ATSP-7041 B26L |  | dual HDM2/HDXM-targeting activity | restored HDM2 binding and bind | HDMX versus HDM2 binding selectivity ([1]; listed as SEQ ID NO:65): dual-selectivity to HDMX and HDM2
Biotin-LTF[R8]EYWAQQ[S5]SAA-NH2 (staple 4-11; SMILES CC(C)C[C@H](NC(=O)CCCC[C@@H]1SC[C@@H]2NC(=O)N[C@@H]21)C(=O)N[C@H](C(=O)N[C@@H](Cc1ccccc1)C(=O)N[C@]1(C)CCCCCCC=CCCC[C@@](C)(C(=O)N[C@@H](CO)C(=O)N[C@@H](C)C(=O)N[C@@H](C)C(N)=O)NC(=O)[C@H](CCC(N)=O)NC(=O)[C@H](CCC(N)=O)NC(=O)[C@H](C)NC(=O)[C@H](Cc2c[nH]c3ccccc23)NC(=O)[C@H](Cc2ccc(O)cc2)NC(=O)[C@H](CCC(=O)O)NC1=O)[C@@H](C)O) [ATSP-7041 B26Q] | no binding |  |  | 

Further lines, with some results ahead:

binding result [3] | Molecule | HDMX versus HDM2 binding selectivity [1] | HDM2 interaction [2] | further results
no binding | Biotin-LTF[R8]EYWAQV[S5]SAA-NH2 (staple 4-11; SMILES CC(C)C[C@H](NC(=O)CCCC[C@@H]1SC[C@@H]2NC(=O)N[C@@H]21)C(=O)N[C@H](C(=O)N[C@@H](Cc1ccccc1)C(=O)N[C@]1(C)CCCCCCC=CCCC[C@@](C)(C(=O)N[C@@H](CO)C(=O)N[C@@H](C)C(=O)N[C@@H](C)C(N)=O)NC(=O)[C@H](C(C)C)NC(=O)[C@H](CCC(N)=O)NC(=O)[C@H](C)NC(=O)[C@H](Cc2c[nH]c3ccccc23)NC(=O)[C@H](Cc2ccc(O)cc2)NC(=O)[C@H](CCC(=O)O)NC1=O)[C@@H](C)O) [ATSP-7041 B26V] |  |  | 
no binding | Biotin-LTF[R8]EYWAQS[S5]SAA-NH2 (staple 4-11; SMILES CC(C)C[C@H](NC(=O)CCCC[C@@H]1SC[C@@H]2NC(=O)N[C@@H]21)C(=O)N[C@H](C(=O)N[C@@H](Cc1ccccc1)C(=O)N[C@]1(C)CCCCCCC=CCCC[C@@](C)(C(=O)N[C@@H](CO)C(=O)N[C@@H](C)C(=O)N[C@@H](C)C(N)=O)NC(=O)[C@H](CO)NC(=O)[C@H](CCC(N)=O)NC(=O)[C@H](C)NC(=O)[C@H](Cc2c[nH]c3ccccc23)NC(=O)[C@H](Cc2ccc(O)cc2)NC(=O)[C@H](CCC(=O)O)NC1=O)[C@@H](C)O) [ATSP-7041 B26S] |  |  | 
no binding | Biotin-LTF[R8]EYWAQR[S5]SAA-NH2 (staple 4-11; SMILES CC(C)C[C@H](NC(=O)CCCC[C@@H]1SC[C@@H]2NC(=O)N[C@@H]21)C(=O)N[C@H](C(=O)N[C@@H](Cc1ccccc1)C(=O)N[C@]1(C)CCCCCCC=CCCC[C@@](C)(C(=O)N[C@@H](CO)C(=O)N[C@@H](C)C(=O)N[C@@H](C)C(N)=O)NC(=O)[C@H](CCCNC(=N)N)NC(=O)[C@H](CCC(N)=O)NC(=O)[C@H](C)NC(=O)[C@H](Cc2c[nH]c3ccccc23)NC(=O)[C@H](Cc2ccc(O)cc2)NC(=O)[C@H](CCC(=O)O)NC1=O)[C@@H](C)O) [ATSP-7041 B26R] |  |  | 
no binding | Biotin-LTF[R8]EYWAQT[S5]SAA-NH2 (staple 4-11; SMILES CC(C)C[C@H](NC(=O)CCCC[C@@H]1SC[C@@H]2NC(=O)N[C@@H]21)C(=O)N[C@H](C(=O)N[C@@H](Cc1ccccc1)C(=O)N[C@]1(C)CCCCCCC=CCCC[C@@](C)(C(=O)N[C@@H](CO)C(=O)N[C@@H](C)C(=O)N[C@@H](C)C(N)=O)NC(=O)[C@H]([C@@H](C)O)NC(=O)[C@H](CCC(N)=O)NC(=O)[C@H](C)NC(=O)[C@H](Cc2c[nH]c3ccccc23)NC(=O)[C@H](Cc2ccc(O)cc2)NC(=O)[C@H](CCC(=O)O)NC1=O)[C@@H](C)O) [ATSP-7041 B26T] |  |  | 
no binding | Biotin-LTF[R8]EYWAQY[S5]SAA-NH2 (staple 4-11; SMILES CC(C)C[C@H](NC(=O)CCCC[C@@H]1SC[C@@H]2NC(=O)N[C@@H]21)C(=O)N[C@H](C(=O)N[C@@H](Cc1ccccc1)C(=O)N[C@]1(C)CCCCCCC=CCCC[C@@](C)(C(=O)N[C@@H](CO)C(=O)N[C@@H](C)C(=O)N[C@@H](C)C(N)=O)NC(=O)[C@H](Cc2ccc(O)cc2)NC(=O)[C@H](CCC(N)=O)NC(=O)[C@H](C)NC(=O)[C@H](Cc2c[nH]c3ccccc23)NC(=O)[C@H](Cc2ccc(O)cc2)NC(=O)[C@H](CCC(=O)O)NC1=O)[C@@H](C)O) [ATSP-7041 B26Y] |  |  | 
no binding | Biotin-LTF[R8]EYWAQW[S5]SAA-NH2 (staple 4-11; SMILES CC(C)C[C@H](NC(=O)CCCC[C@@H]1SC[C@@H]2NC(=O)N[C@@H]21)C(=O)N[C@H](C(=O)N[C@@H](Cc1ccccc1)C(=O)N[C@]1(C)CCCCCCC=CCCC[C@@](C)(C(=O)N[C@@H](CO)C(=O)N[C@@H](C)C(=O)N[C@@H](C)C(N)=O)NC(=O)[C@H](Cc2c[nH]c3ccccc23)NC(=O)[C@H](CCC(N)=O)NC(=O)[C@H](C)NC(=O)[C@H](Cc2c[nH]c3ccccc23)NC(=O)[C@H](Cc2ccc(O)cc2)NC(=O)[C@H](CCC(=O)O)NC1=O)[C@@H](C)O) [ATSP-7041 B26W] |  |  | 
